From patent US20250011363A1, “OPTIMIZED SHORTENED PEPTIDE THAT BINDS TO ACETYLCHOLINE RECEPTOR, AND USE THEREOF” (SKINMED CO., LTD., priority 2021, published 2025) come the findings set out here.

This assay has as its target acetylcholine receptor (Homo sapiens, UniProt P02708). Briefly: SPR binding affinity (RU) of optimized 5mer/6mer/7mer peptides, Examples 6-7. The settings on record: SPR; for Binding affinity: peptides at 10 μM, 6mer-2 Bottom sequence; for Binding affinity, relative value to the RRQRR sequence: XRRQRR-6mer and RRQRRX-6mer; for Binding affinity, values relative to the RRGVRR sequence: XRRGVRR-7mer and RRGVRRX-7mer. An outline of the steps: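 Peptides were tested at 10 μM by surface plasmon resonance against the receptor, with binding reported as response units. Library sequences were built from frequent (top) or infrequent (bottom) amino acid combinations in 5mer, 6mer-1 and 6mer-2 series.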
In general terms: SPR reads the build-up and loss of mass on a sensor chip optically.

Chain of acetylcholine receptor (P02708 21-457): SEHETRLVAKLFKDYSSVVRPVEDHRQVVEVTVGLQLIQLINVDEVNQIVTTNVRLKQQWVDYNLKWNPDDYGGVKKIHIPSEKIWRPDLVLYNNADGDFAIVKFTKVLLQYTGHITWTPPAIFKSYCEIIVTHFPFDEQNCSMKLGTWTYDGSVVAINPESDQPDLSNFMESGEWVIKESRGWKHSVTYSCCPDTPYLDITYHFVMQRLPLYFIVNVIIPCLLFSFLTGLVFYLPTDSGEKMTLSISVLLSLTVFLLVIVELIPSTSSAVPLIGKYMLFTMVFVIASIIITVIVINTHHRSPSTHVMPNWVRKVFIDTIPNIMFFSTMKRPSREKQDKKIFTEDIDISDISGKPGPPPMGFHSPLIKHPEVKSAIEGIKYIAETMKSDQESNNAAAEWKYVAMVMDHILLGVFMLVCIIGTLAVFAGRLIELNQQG

Take 6mer-2-1183 (RENNRK): the Binding affinity is 35 Ru.

Turning to 6mer-2-1184 (KFWVRR), the Binding affinity amounted to 22 Ru. On the same count and under the same terms, as for 6mer-2-1185 (RIDAKK), the figure is 42 Ru.

On to 6mer-2-1186 (KEKFRR), for which the Binding affinity was determined as 27 Ru. Still for that read-out and setting: the result for 6mer-2-1187 (RTADRK) reads 36 Ru; that for 6mer-2-1188 (RAPARR), 22 Ru; that for 6mer-2-1189 (KTAPKK), 40 Ru.

With 6mer-2-1190 (KACIRR), the Binding affinity amounted to 32 Ru. Regarding 6mer-2-1191 (KKADRK), the Binding affinity was 35 Ru.

In the case of 6mer-2-1192 (KHKNKR), the Binding affinity was 40 Ru. On to 6mer-2-1193 (REKIRR), for which the Binding affinity came to 43 Ru. Turning to 6mer-2-1194 (KYCDRK), the Binding affinity was 35 Ru. The same measure, in the same setting: as for 6mer-2-1195 (KMTERK), the figure is 25 Ru; as for 6mer-2-1196 (RESKKR), 39 Ru; as for 6mer-2-1197 (KNCIKK), 23 Ru. As to 6mer-2-1198 (RMSHRR), the Binding affinity was 27 Ru. Same read-out and setting: as for 6mer-2-1199 (RCTNKR), the figure is 27 Ru; as for 6mer-2-1200 (RHHNRR), 30 Ru. On to 3601 (GRRQRR) [compound 3601], for which the “Binding affinity, relative value to the RRQRR sequence” value (“Binding affinity, relative value” below) was determined as 132. Same read-out and setting: the result for 3602 (ARRQRR) [compound 3602] reads 129; that for 3603 (VRRQRR) [compound 3603], 135. The same measure, in the same setting: as for 3604 (CRRQRR) [compound 3604], the figure is 123.

Turning to 3605 (PRRQRR) [compound 3605], the “Binding affinity, relative value” value was 133.

As to 3606 (LRRQRR) [compound 3606], the “Binding affinity, relative value” value was determined as 144.

With 3607 (IRRQRR) [compound 3607], the “Binding affinity, relative value” value was 121. Regarding 3608 (MRRQRR) [compound 3608], the “Binding affinity, relative value” value is recorded as 119. On the same count and under the same terms, the result for 3609 (WRRQRR) [compound 3609] reads 138; that for 3610 (FRRQRR) [compound 3610], 143. The same measure, in the same setting: the result for 3611 (SRRQRR) [compound 3611] reads 121; that for 3612 (TRRQRR) [compound 3612], 103; that for 3613 (YRRQRR) [compound 3613], 130. As for 3614 (NRRQRR) [compound 3614], the “Binding affinity, relative value” value came to 113.

3615 (QRRQRR) [compound 3615]: the “Binding affinity, relative value” value is on record as 105. The same measure, in the same setting: the result for 3616 (KRRQRR) [compound 3616] reads 173; that for 3617 (RRRQRR) [compound 3617], 189; that for 3618 (HRRQRR) [compound 3618], 164. With 3619 (DRRQRR) [compound 3619], the “Binding affinity, relative value” value turned out to be 163. Still for that read-out and setting: as for 3620 (ERRQRR) [compound 3620], the figure is 147; as for 3621 (RRQRRG) [compound 3621], 109; as for 3622 (RRQRRA) [compound 3622], 113.

For 3623 (RRQRRV) [compound 3623], the “Binding affinity, relative value” value was determined as 120. The same measure, in the same setting: the result for 3624 (RRQRRC) [compound 3624] reads 126.

Turning to 3625 (RRQRRP) [compound 3625], the “Binding affinity, relative value” value is on record as 137. The same measure, in the same setting: the result for 3626 (RRQRRL) [compound 3626] reads 141; that for 3627 (RRQRRI) [compound 3627], 133. The same measure, in the same setting: the result for 3628 (RRQRRM) [compound 3628] reads 122. For 3629 (RRQRRW) [compound 3629], the “Binding affinity, relative value” value came out at 129. Consider 3630 (RRQRRF) [compound 3630], for which the “Binding affinity, relative value” value turned out to be 132. The same measure, in the same setting: as for 3631 (RRQRRS) [compound 3631], the figure is 113; as for 3632 (RRQRRT) [compound 3632], 117. Same read-out and setting: as for 3633 (RRQRRY) [compound 3633], the figure is 105; as for 3634 (RRQRRN) [compound 3634], 109.

As for 3635 (RRQRRQ) [compound 3635], the “Binding affinity, relative value” value came out at 101. Same read-out and setting: as for 3636 (RRQRRK) [compound 3636], the figure is 175; as for 3637 (RRQRRR) [compound 3637], 192. The same measure, in the same setting: the result for 3638 (RRQRRH) [compound 3638] reads 158. For 3639 (RRQRRD) [compound 3639], the “Binding affinity, relative value” value is on record as 65.

3640 (RRQRRE) [compound 3640]: the “Binding affinity, relative value” value came to 37. 3641 (GRRGVRR) [compound 3641]: the “Binding affinity, values relative to the RRGVRR sequence” value came out at 137.

On to 3642 (ARRGVRR) [compound 3642], for which the “Binding affinity, values relative to the RRGVRR sequence” value was 134. The same measure, in the same setting: the result for 3643 (VRRGVRR) [compound 3643] reads 140. Regarding 3644 (CRRGVRR) [compound 3644], the “Binding affinity, values relative to the RRGVRR sequence” value was found to be 128.

Turning to 3645 (PRRGVRR) [compound 3645], the “Binding affinity, values relative to the RRGVRR sequence” value turned out to be 138.

Regarding 3646 (LRRGVRR) [compound 3646], the “Binding affinity, values relative to the RRGVRR sequence” value came to 149. On the same count and under the same terms, the result for 3647 (IRRGVRR) [compound 3647] reads 126; that for 3648 (MRRGVRR) [compound 3648], 124; that for 3649 (WRRGVRR) [compound 3649], 134. Consider 3650 (FRRGVRR) [compound 3650], for which the “Binding affinity, values relative to the RRGVRR sequence” value stood at 139. Same read-out and setting: the result for 3651 (SRRGVRR) [compound 3651] reads 117. For 3652 (TRRGVRR) [compound 3652], the “Binding affinity, values relative to the RRGVRR sequence” value was 105. On to 3653 (YRRGVRR) [compound 3653], for which the “Binding affinity, values relative to the RRGVRR sequence” value was determined as 145.

In the case of 3654 (NRRGVRR) [compound 3654], the “Binding affinity, values relative to the RRGVRR sequence” value amounted to 109. On the same count and under the same terms, the result for 3655 (QRRGVRR) [compound 3655] reads 101; that for 3656 (KRRGVRR) [compound 3656], 169. For 3657 (RRRGVRR) [compound 3657], the “Binding affinity, values relative to the RRGVRR sequence” value amounted to 185.
